Reference: patent US20200407708A1

Target: streptavidin (UniProt P22629)
Assay: gel shift with streptavidin

Chain of UniProt P22629 (P22629 37-163 limits assumed): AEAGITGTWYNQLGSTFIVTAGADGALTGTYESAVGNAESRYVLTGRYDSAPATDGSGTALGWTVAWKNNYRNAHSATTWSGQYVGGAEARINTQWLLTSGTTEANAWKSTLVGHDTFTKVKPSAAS

Question: biotinylated SpyCatcher002 (S50C) was tested. Which percent of protein biotinylated (shifted in the presence of streptavidin) did it give?
Answer: The percent of protein biotinylated (shifted in the presence of streptavidin) was 90%.
